Measured values taken from patent US20130251703A1 (Novartis, published 2013).

Target: human HER3 endogenously expressed on human cancer cells (SK-Br-3, BT-474, MCF7) (human, UniProt P21860 20-1342)
Assay: cell-based or functional assay

Row | MCF7 pHER3 % inhibition | MCF7 pHER3 IC50 | SK-Br-3 pHER3 % inhibition | SK-Br-3 pHER3 IC50 | Binder
1 | 72% | 603 pM | 59% | 267 pM | MOR13667 (antibody, human IgG1, lambda, V domains shown) VH: QVQLVQSGAEVKKPGASVKVSCKASGYTFTSYDIHWVRQAPGQGLEWMGRIDPYSGNTNYAQKFQGRVTMTRDTSISTAYMELSRLRSEDTAVYYCARGSFYTRDSYFDVWGQGTLVTVSS VL: DIALTQPASVSGSPGQSITISCTGTSSDVGTYNQVSWYQQHPGKAPKLMIYGVSKRPSGVSNRFSGSKSGNTASLTISGLQAEDEADYYCQAWDYRQTIVFGGGTKLTVLG
2 | 66% | 505 pM | 51% | 277 pM | MOR13659 (antibody, human IgG1, lambda, V domains shown) VH: QVQLVQSGAEVKKPGASVKVSCKASGYTFTSYDIHWVRQAPGQGLEWMGRIDPYSGNTNYAQKFQGRVTMTRDTSISTAYMELSRLRSEDTAVYYCARGSFYTRDSYFDVWGQGTLVTVSS VL: DIALTQPASVSGSPGQSITISCTGTSSDVGTYNQVSWYQQHPGKAPKLMIYGVSKRPSGVSNRFSGSKSGNTASLTISGLQAEDEADYYCGSRTSHNWVFGGGTKLTVLG
3 | 62% | 795 pM | 59% | 546 pM | MOR13665 (antibody, human IgG1, lambda, V domains shown) VH: QVQLVQSGAEVKKPGASVKVSCKASGYTFTSYDIHWVRQAPGQGLEWMGRIDPYSGNTNYAQKFQGRVTMTRDTSISTAYMELSRLRSEDTAVYYCARGSFYTRDSYFDVWGQGTLVTVSS VL: DIALTQPASVSGSPGQSITISCTGTSSDVGTYNQVSWYQQHPGKAPKLMIYGVSKRPSGVSNRFSGSKSGNTASLTISGLQAEDEADYYCQSAAIATSVFGGGTKLTVLG
4 | 55% | 649 pM | 55% | 421 pM | MOR13661 (antibody, human IgG1, lambda, V domains shown) VH: QVQLVQSGAEVKKPGASVKVSCKASGYTFTSYDIHWVRQAPGQGLEWMGRIDPYSGNTNYAQKFQGRVTMTRDTSISTAYMELSRLRSEDTAVYYCARGSFYTRDSYFDVWGQGTLVTVSS VL: DIALTQPASVSGSPGQSITISCTGTSSDVGTYNQVSWYQQHPGKAPKLMIYGVSKRPSGVSNRFSGSKSGNTASLTISGLQAEDEADYYCGSRDSWAHVFGGGTKLTVLG
5 | 52% | 550 pM | 56% | 331 pM | MOR13662 (antibody, human IgG1, lambda, V domains shown) VH: QVQLVQSGAEVKKPGASVKVSCKASGYTFTSYDIHWVRQAPGQGLEWMGRIDPYSGNTNYAQKFQGRVTMTRDTSISTAYMELSRLRSEDTAVYYCARGSFYTRDSYFDVWGQGTLVTVSS VL: DIALTQPASVSGSPGQSITISCTGTSSDVGTYNQVSWYQQHPGKAPKLMIYGVSKRPSGVSNRFSGSKSGNTASLTISGLQAEDEADYYCYSRAKTHWTDVFGGGTKLTVLG
6 | 49% | 533 pM | 54% | 188 pM | MOR13660 (antibody, human IgG1, lambda, V domains shown) VH: QVQLVQSGAEVKKPGASVKVSCKASGYTFTSYDIHWVRQAPGQGLEWMGRIDPYSGNTNYAQKFQGRVTMTRDTSISTAYMELSRLRSEDTAVYYCARGSFYTRDSYFDVWGQGTLVTVSS VL: DIALTQPASVSGSPGQSITISCTGTSSDVGTYNQVSWYQQHPGKAPKLMIYGVSKRPSGVSNRFSGSKSGNTASLTISGLQAEDEADYYCAVRGSQTLVFGGGTKLTVLG
7 | 58% | 449 pM | 56% | 290 pM | MOR13663 (antibody, human IgG1, lambda, V domains shown) VH: QVQLVQSGAEVKKPGASVKVSCKASGYTFTSYDIHWVRQAPGQGLEWMGRIDPYSGNTNYAQKFQGRVTMTRDTSISTAYMELSRLRSEDTAVYYCARGSFYTRDSYFDVWGQGTLVTVSS VL: DIALTQPASVSGSPGQSITISCTGTSSDVGTYNQVSWYQQHPGKAPKLMIYGVSKRPSGVSNRFSGSKSGNTASLTISGLQAEDEADYYCSVWTSIKVFVFGGGTKLTVLG
8 | 77% | 1640 pM | 58% | 657 pM | MOR13668 (antibody, human IgG1, lambda, V domains shown) VH: QVQLVQSGAEVKKPGASVKVSCKASGYTFTSYDIHWVRQAPGQGLEWMGRIDPYSGNTNYAQKFQGRVTMTRDTSISTAYMELSRLRSEDTAVYYCARGSFYTRDSYFDVWGQGTLVTVSS VL: DIALTQPASVSGSPGQSITISCTGTSSDVGTYNQVSWYQQHPGKAPKLMIYGVSKRPSGVSNRFSGSKSGNTASLTISGLQAEDEADYYCQVWDSDQAMVFGGGTKLTVLG
9 | 55% | 480 pM | 57% | 388 pM | MOR13664 (antibody, human IgG1, lambda, V domains shown) VH: QVQLVQSGAEVKKPGASVKVSCKASGYTFTSYDIHWVRQAPGQGLEWMGRIDPYSGNTNYAQKFQGRVTMTRDTSISTAYMELSRLRSEDTAVYYCARGSFYTRDSYFDVWGQGTLVTVSS VL: DIALTQPASVSGSPGQSITISCTGTSSDVGTYNQVSWYQQHPGKAPKLMIYGVSKRPSGVSNRFSGSKSGNTASLTISGLQAEDEADYYCSAYDASTQVVFGGGTKLTVLG
10 | 66% | – | 58% | 743 pM | MOR13669 (antibody, human IgG1, lambda, V domains shown) VH: QVQLVQSGAEVKKPGASVKVSCKASGYTFTSYDIHWVRQAPGQGLEWMGRIDPYSGNTNYAQKFQGRVTMTRDTSISTAYMELSRLRSEDTAVYYCARGSFYTRDSYFDVWGQGTLVTVSS VL: DIALTQPASVSGSPGQSITISCTGTSSDVGTYNQVSWYQQHPGKAPKLMIYGVSKRPSGVSNRFSGSKSGNTASLTISGLQAEDEADYYCSTATAMTVSLVFGGGTKLTVLG
11 | 73% | 504 pM | 60% | 86 pM | MOR13656 (antibody, human IgG1, lambda, V domains shown) VH: QVQLVQSGAEVKKPGASVKVSCKASGYTFTSYDIHWVRQAPGQGLEWMGRIDPYSGNTNYAQKFQGRVTMTRDTSISTAYMELSRLRSEDTAVYYCARGSFYTRDSYFDVWGQGTLVTVSS VL: DIALTQPASVSGSPGQSITISCTGTSSDVGTYNQVSWYQQHPGKAPKLMIYGVSKRPSGVSNRFSGSKSGNTASLTISGLQAEDEADYYCAVRDSVWHVFGGGTKLTVLG
12 | 69% | 643 pM | 60% | 730 pM | MOR13670 (antibody, human IgG1, lambda, V domains shown) VH: QVQLVQSGAEVKKPGASVKVSCKASGYTFTSYDIHWVRQAPGQGLEWMGRIDPYSGNTNYAQKFQGRVTMTRDTSISTAYMELSRLRSEDTAVYYCARGSFYTRDSYFDVWGQGTLVTVSS VL: DIALTQPASVSGSPGQSITISCTGTSSDVGTYNQVSWYQQHPGKAPKLMIYGVSKRPSGVSNRFSGSKSGNTASLTISGLQAEDEADYYCQVADQGWHQVFGGGTKLTVLG
